test system: Escherichia coli TOP10; experiment: shrunken log2 fold change of peptide-encoding DNA abundance (4.5 h post-induction vs induction); higher = less antimicrobial activity (less host growth inhibition); conditions: time post-induction: 4.5 h; library: site-saturation at positions 5, 18, 19, 20
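Also: peptides expressed intracellularly from a pBAD plasmid library in pooled LB shake-flask culture, induced with 0.3% L-arabinose, DNA abundance read by NGS, three biological replicates, DESeq2 with apeglm shrinkage.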

| Sequence | shrunken log2 fold change |
| --- | --- |
| RRIRTRPPRLPRPRPRPMVVPRP | 0.0636 |
| RRIRERPPRLPRPRPRPWEHPRP | -0.221 |
| RRIRQRPPRLPRPRPRPNSHPRP | -0.191 |
| RRIRSRPPRLPRPRPRPSVIPRP | -0.602 |
| RRIRLRPPRLPRPRPRPYIEPRP | -0.176 |
| RRIRNRPPRLPRPRPRPQCKPRP | -0.0743 |
| RRIRMRPPRLPRPRPRPSMWPRP | 0.09 |
| RRIRIRPPRLPRPRPRPIGIPRP | -0.0608 |
| RRIRDRPPRLPRPRPRPWKCPRP | 0.118 |
| RRIRGRPPRLPRPRPRPKIAPRP | 0.386 |
| RRIRSRPPRLPRPRPRPGYHPRP | -0.512 |
| RRIRSRPPRLPRPRPRPQPEPRP | -0.279 |
| RRIRERPPRLPRPRPRPQENPRP | -0.164 |
| RRIRIRPPRLPRPRPRPVAEPRP | 0.243 |
| RRIRYRPPRLPRPRPRPRWIPRP | -0.553 |
| RRIRKRPPRLPRPRPRPHIAPRP | -0.415 |
| RRIRGRPPRLPRPRPRPDITPRP | 1.01 |
| RRIRMRPPRLPRPRPRPGLVPRP | 0.294 |
| RRIRIRPPRLPRPRPRPYVPPRP | -0.212 |
| RRIRHRPPRLPRPRPRPFEIPRP | -0.0931 |
| RRIRLRPPRLPRPRPRPWGIPRP | -0.198 |
| RRIRFRPPRLPRPRPRPPRAPRP | 0.92 |
| RRIRHRPPRLPRPRPRPDCYPRP | -0.0716 |
| RRIRSRPPRLPRPRPRPHICPRP | -0.127 |
| RRIRPRPPRLPRPRPRPKSVPRP | -0.119 |

| Sequence | shrunken log2 fold change |
| --- | --- |
| RRIRDRPPRLPRPRPRPHRLPRP | 0.033 |
| RRIRARPPRLPRPRPRPWRWPRP | 0.451 |
| RRIRGRPPRLPRPRPRPDPTPRP | 1.06 |
| RRIRRRPPRLPRPRPRPKRGPRP | 0.44 |
| RRIRNRPPRLPRPRPRPDSFPRP | -0.0232 |
| RRIRFRPPRLPRPRPRPHFMPRP | -0.538 |
| RRIRSRPPRLPRPRPRPWCMPRP | -0.781 |
| RRIRERPPRLPRPRPRPHFQPRP | 0.0177 |
| RRIRCRPPRLPRPRPRPQHCPRP | -0.287 |
| RRIRQRPPRLPRPRPRPMLMPRP | -0.0108 |
| RRIRDRPPRLPRPRPRPDRYPRP | -0.395 |
| RRIRDRPPRLPRPRPRPDTQPRP | 0.419 |
| RRIRARPPRLPRPRPRPYSQPRP | -0.135 |
| RRIRDRPPRLPRPRPRPNQGPRP | 0.125 |
| RRIRRRPPRLPRPRPRPRQAPRP | 0.801 |
| RRIRHRPPRLPRPRPRPGHIPRP | -0.282 |
| RRIRNRPPRLPRPRPRPWRRPRP | -0.0717 |
| RRIRNRPPRLPRPRPRPHREPRP | -0.00211 |
| RRIRQRPPRLPRPRPRPKRCPRP | 0.129 |
| RRIRRRPPRLPRPRPRPFRDPRP | 0.506 |
| RRIRLRPPRLPRPRPRPQCRPRP | 0.0156 |
| RRIRTRPPRLPRPRPRPMATPRP | 0.0309 |
| RRIRGRPPRLPRPRPRPTQEPRP | 1.38 |
| RRIRNRPPRLPRPRPRPGLAPRP | 0.415 |
| RRIRSRPPRLPRPRPRPPQNPRP | 0.294 |

| Sequence | shrunken log2 fold change |
| --- | --- |
| RRIRTRPPRLPRPRPRPFMGPRP | -0.0574 |
| RRIRWRPPRLPRPRPRPRCGPRP | 0.672 |
| RRIRKRPPRLPRPRPRPFKDPRP | -0.0776 |
| RRIRDRPPRLPRPRPRPGTRPRP | 0.118 |
| RRIRTRPPRLPRPRPRPGSVPRP | -0.179 |
| RRIRIRPPRLPRPRPRPPERPRP | 0.324 |
| RRIRFRPPRLPRPRPRPKGNPRP | -0.047 |
| RRIRGRPPRLPRPRPRPFCMPRP | 0.0902 |
| RRIRPRPPRLPRPRPRPDVKPRP | -0.137 |
| RRIRARPPRLPRPRPRPSLPPRP | 0.157 |
| RRIRGRPPRLPRPRPRPAHRPRP | 0.224 |
| RRIRPRPPRLPRPRPRPPHLPRP | 0.024 |
| RRIRNRPPRLPRPRPRPQQRPRP | -0.0535 |
| RRIRPRPPRLPRPRPRPFHYPRP | -1.27 |
| RRIRPRPPRLPRPRPRPESEPRP | -0.0127 |
| RRIRMRPPRLPRPRPRPVGTPRP | 0.477 |
| RRIRSRPPRLPRPRPRPRNYPRP | -0.465 |
| RRIRTRPPRLPRPRPRPADEPRP | -0.0108 |
| RRIRHRPPRLPRPRPRPFDYPRP | -0.0282 |
| RRIRIRPPRLPRPRPRPYCQPRP | -1.1 |
| RRIRFRPPRLPRPRPRPESAPRP | 0.428 |
| RRIRSRPPRLPRPRPRPCQQPRP | -0.147 |
| RRIRRRPPRLPRPRPRPFCDPRP | -0.0358 |
| RRIRVRPPRLPRPRPRPNFEPRP | 0.178 |
| RRIRKRPPRLPRPRPRPSGLPRP | -0.0301 |

| Sequence | shrunken log2 fold change |
| --- | --- |
| RRIRGRPPRLPRPRPRPQDAPRP | 0.832 |
| RRIRQRPPRLPRPRPRPATWPRP | 0.343 |
| RRIRPRPPRLPRPRPRPDRGPRP | 0.0265 |
| RRIRQRPPRLPRPRPRPRPAPRP | 0.185 |
| RRIRCRPPRLPRPRPRPQEAPRP | 0.0141 |
| RRIRQRPPRLPRPRPRPSMEPRP | 0.0775 |
| RRIRYRPPRLPRPRPRPKFQPRP | -0.0557 |
| RRIRARPPRLPRPRPRPKCQPRP | 0.432 |
| RRIRARPPRLPRPRPRPVKDPRP | 0.284 |
| RRIRRRPPRLPRPRPRPKTPPRP | 0.782 |
| RRIRNRPPRLPRPRPRPLHHPRP | -0.39 |
| RRIRGRPPRLPRPRPRPIHQPRP | -0.0704 |
| RRIRPRPPRLPRPRPRPVTPPRP | 0.125 |
| RRIRIRPPRLPRPRPRPLLVPRP | -0.565 |
| RRIRSRPPRLPRPRPRPVREPRP | 0.723 |
| RRIRHRPPRLPRPRPRPYYEPRP | 0.0317 |
| RRIRYRPPRLPRPRPRPLSQPRP | 0.0967 |
| RRIRMRPPRLPRPRPRPQEMPRP | -0.0105 |
| RRIRPRPPRLPRPRPRPEQYPRP | -0.226 |
| RRIRMRPPRLPRPRPRPTRCPRP | 0.863 |
| RRIRIRPPRLPRPRPRPRPSPRP | 0.322 |
| RRIRDRPPRLPRPRPRPWREPRP | 0.00581 |
| RRIRTRPPRLPRPRPRPACVPRP | 0.235 |
| RRIRQRPPRLPRPRPRPVRRPRP | -0.00994 |
| RRIRGRPPRLPRPRPRPQTSPRP | 0.407 |

| Sequence | shrunken log2 fold change |
| --- | --- |
| RRIRWRPPRLPRPRPRPQHCPRP | -0.115 |
| RRIRWRPPRLPRPRPRPIAGPRP | 0.0596 |
| RRIRGRPPRLPRPRPRPHLFPRP | 0.0842 |
| RRIRFRPPRLPRPRPRPPYYPRP | -0.464 |
| RRIRNRPPRLPRPRPRPKHPPRP | 0.111 |
| RRIRCRPPRLPRPRPRPAQSPRP | 0.345 |
| RRIRYRPPRLPRPRPRPQKKPRP | 0.0261 |
| RRIRYRPPRLPRPRPRPWLPPRP | 0.1 |
| RRIRRRPPRLPRPRPRPGSAPRP | 0.378 |
| RRIRCRPPRLPRPRPRPHPCPRP | -0.579 |
| RRIRVRPPRLPRPRPRPYVFPRP | -0.136 |
| RRIRKRPPRLPRPRPRPRWWPRP | 0.316 |
| RRIRYRPPRLPRPRPRPVYMPRP | -1.34 |
| RRIRRRPPRLPRPRPRPNVQPRP | 0.0253 |
| RRIRKRPPRLPRPRPRPHGWPRP | 0.865 |
| RRIRVRPPRLPRPRPRPIMYPRP | -0.514 |
| RRIRWRPPRLPRPRPRPYCLPRP | -0.633 |
| RRIRDRPPRLPRPRPRPHFWPRP | -0.0278 |
| RRIRNRPPRLPRPRPRPILPPRP | -0.297 |
| RRIRIRPPRLPRPRPRPNHEPRP | 0.042 |
| RRIRTRPPRLPRPRPRPCKPPRP | -0.996 |
| RRIRMRPPRLPRPRPRPTILPRP | -0.0108 |
| RRIRFRPPRLPRPRPRPSRYPRP | -0.0764 |
| RRIRQRPPRLPRPRPRPPGPPRP | 0.255 |
| RRIRGRPPRLPRPRPRPMNWPRP | 0.179 |

Reference: the supplement of paper PMC9112550, “Optimization of the antimicrobial peptide Bac7 by deep mutational scanning” (BMC Biology, 2022)
